Source: publication PMC12312033

Assays:
Assay in all cases: NMR
Details in all cases: 286 K (pH measured at 21 °C), none, MilliQ water with 3.2 mM DSS-d6 and 0.13 mM EDTA, pH adjusted with NaOH/HCl, random coil
[1] = molecular target: Glu3 (position 3, ---GGEGG---)
[2] = molecular target: Glu21 (UniProt position 72, …)
[3] = molecular target: Glu24 (UniProt position 75, …)
[4] = molecular target: Glu17 (UniProt position 68, …)
[5] = 50 mM CaCl2, total ionic strength not stated, 50 mM CaCl2 (5-fold excess over 10 mM peptide)
[6] = not stated (no added salt; varies with NaOH/HCl additions), no Ca2+, 10 mM peptide

B1: Model peptide 1, Ac-GGEGG-NH2 (synthetic) (peptide)
chain: GGEGG
- pKa [1, 5]: 4.30
- pKa [1, 6]: 4.34

B2: Osteocalcin P15-N26 peptide, uncarboxylated (Glu) form (peptide 5) (Homo sapiens; C23S) (peptide)
chain: PLEPRREVSELN
- pKa [2, 5]: 4.28
- pKa [2, 6]: 4.33
- pKa [3, 5]: 4.20
- pKa [3, 6]: 4.19
- pKa [4, 5]: 4.25
- pKa [4, 6]: 4.26
